This series is described as follows: soluble on expression in E. coli; label from the status in PepcDB or PDB records.
With “MGSDKIHHHHHHMKITFPNLGNTLYAAKALFDNLEIEYVLPPNSSKKCLEIGSLYSPEDICLPFKIMIGAYIDSIERGADTILITGSCGPCRFGEYCELQINLLKKLGHDVDFIVLDRPSSIGKTEFLNRLSKISGSSSISSYKKLKAVYSAYKIINLIDYIEKTARYKAGFELKKGECKKILQTCKKSALTCNNAESMIDLLTKYKHMINHVPIDSTKTPLKVSIIGEIYTILEPFSNLYIENKLMDLGISTQKNITPSWWFKDAMLSNLNLNSINLRMNSKKYLPYYIGGHGRECVGEAVMASNSGFDGAIQLFPMGCMPEIVSKSILPTISRDKDFPILSLIIDEMTGDAGYMTRIEAFIDLLERRKNRCII”, the “soluble on expression in E. coli” value is on record as “not soluble”. “MDQKQLQALVEQISIRVFGKPFRHTAFFNPRLRTTGGRYMLQTHNIELNKKHYEQFGEEELIAIIKHELCHYHLHLEGKGYRHRDRDFRELLQKVGAPRYCRPLARNTKAPKTIYTYICTSCGLTYRRKRRINIDRYVCGRCRSKLKRS”: the “soluble on expression in E. coli” value is “not soluble”. As to “MGHHHHHHSHMTDIKILDACCGSRLFWFDKNEPHTTFMDVRQEKFEMHGKKINVNPDVIGDFRDMPFESNSFNLVVFDPPHLKYVGQNSIMKAQYGQLDKENWKEDISKGFEECMRVLKVGGTLVFKWSDCQVNVREVLSAIPFKPLFGQQRGTTHWMTFVKFELTGNGG”, the “soluble on expression in E. coli” value is “not soluble”. Take “MGHHHHHHSHMDIQKSENEDDSEWEDVDDEKGDSNDDYDSAGLLSDEDCMSVPGKTHRAIADHLFWSEETKSRFTEYSMTSSVMRRNEQLTLHDERFEKFYEQYDDDEIGALDNAELEGSIQVDSNRLQEVLNDYYKEKAENCVKLNTLEPLEDQDLPMNELDESEEEEMITVVLEEAKEKWDCESICSTYSNLYNHPQLIKYQPKPKQIRISSKTGIPLNVLPKKGLTAKQTERIQMINGSDLPKVSTQPRSKNESKEDKRARKQAIKEERKERRVEKKANKLAFKLEKRRQEKELLNLKKNVEGLKL”: the “soluble on expression in E. coli” value is “not soluble”.

In the case of “MKKILVGIPNYNNAAYIVDTIESVLKQSYSGVDVVVFDNASTDDSVEIIENTFLNNPNVLLKKSASNVGPTMNHNRCLEYAIDNEYDYLKVLSSDDVLLPNIIQEQFELLESEPRGAFATCNMIVTDDKLTKIKDHDFLGSNTDGNAVIKKCASHSANYIGGPSNGLLRVSCIGATRFSPEYKWLSDLKFYCDLLANRPFINTGTNGFFYRRHDNTDSSHVSKIKNLQRKESIRFSGEYGGNFLTKIKIYLRDIKSRLLLEHHHHHH”, the “soluble on expression in E. coli” value is “not soluble”. Take “MAESRSPDRGAKEDKPRPRNISREESLQLEGYKHACHALLHAPSQAKLFDRVPIRRVLLMMMRFDGRLGFPGGFVDTRDISLEEGLKRELEEELGPALATVEVTEDDYRSSQVREHPQKCVTHFYIKELKLEEIERIEAEAVNAKDHGLEVMGLIRVPLYTLRDRVGGLPAFLCNNFIGNSKSQLLYALRSLKLLREDQIQEVLKASHRLQY”: the “soluble on expression in E. coli” value is recorded as “soluble”.

Turning to “MGSDKIHHHHHHMTYQAREAGLKEVEQLVHEQAVYQYLQENNEGGQMDKDQMLFLHEAISGSDLTDAAAYRVVSATLYMILAHDTHEKIDEPGDVVKLTRKEQELTVLAGDFYSALYYRTLAELEMIPLLRALQSGVQETNTAKTNIYQLHVATDEEYLSQLTLTNAAIFAKFAKYFMKDETFIALGCQFFLLKRLQTELATYKEIGASRLKRAFDHGYFAKEAVSNFESWLVAIIRDVKSEVERLKTEAEPLSNLLEKRIIEVIND”, the “soluble on expression in E. coli” value was “not soluble”. For the sequence “GYIVDMSKWNGSPDWDTAKGQLDLVIARVQDGSNYVDPVYKDYVAAMKARNIPFGSYAFCRFVSVEDAKVEARDFWNRGDKDSLFWVADVEVTTMSDMRAGTQAFIDELYRLGAKKVGLYVGHHKYEEFGAAQIKCDFTWIPRYGAKPAYPCDLWQYDEYGQVPGIGKCDLNRLNGDKSLDWFTGKGEE”, the “soluble on expression in E. coli” value is reported as “soluble”. In the case of “MDIKRYCPVTDSELPADHVYFKFRSEIEAAEAYLGLAISEGIKVRETREILDIIDTVYNSLSDPESKLNDFQEKRLNFTEEDWYDIKEKANNGNRWSLYMFLARSAVDSAVYWSYRMKETEEFKEIVKEEMISKLLKAGYVILRESLGEVRL”, the “soluble on expression in E. coli” value is “soluble”. For the sequence “MRILDYDKVIERILEFIREKGNNGVVIGISGGVDSATVAYLATKALGKEKVLGLIMPYFENKDVEDAKLVAEKLGIGYKVINIKPIVDSFVENLELNLDRKGLGNIMSRTRMIMLYAHANSLGRIVLGTSNRSEFLTGYFTKWGDGASDYAPIINLYKTEVWEIAKRIGVPERIVKKKPSAGLWEGQTDEDELGISYNLLDEILWRMIDLKIGKEEIAKDLGIPLSLVERVEELIKKSEHKRRLPIGPSFEDLIVGP”, the “soluble on expression in E. coli” value is “soluble”. Regarding “MGSDKIHHHHHHMQLKRMGYAQTKIRQGPNHRDGEQVTFLDVKQFFGLGHVRVGSWVSSEESLIAANMVFDALADLALVLGLPPKVMGLRERLNLAFGHGGQQGVMAHYSPSERTLALAKHAGAGAVAHEFWHAFDHHLSDTAMDIGRSQKARFASELWLNDVPLLCHPLNDRLEALFQSVLLSGDGEHPSDYVRRAIQLDKTYGRLYFSHPSELMARAFEAAIESEGDFEQVDTDSGEIHLLPLINPYLVTGTLEDIKTENKGELLPKFGSWGAMPQGAFPTPIHRQAIMKAMAGYFRPLGRALAKTLS”, the “soluble on expression in E. coli” value is “not soluble”. With “MLRVIVESASNIPKTKFGKPDPIVSVIFKDEKKKTKKVDNELNPVWNEILEFDLRGIPLDFSSSLGIIVKDFETIGQNKLIGTATVALKDLTGDQSRSLPYKLISLLNEKGQDTGATIDLVIGYDPP”, the “soluble on expression in E. coli” value is recorded as “soluble”.

Consider “MSNINIRVAHEQDAEELHSIMQIAFTPLRELGIDWPSVHADLEMVKDNLRQNTTFVLENEKEIISTITVCYSWSSVKPISGYPFVWWFATRPTYDGQGYGSQLLKYAEETFLRDTLKAAAVTLGTSARLHPWLLNIYEKRGYEIYAKHENDDGDLGVIMRKILIPEQFNDDILGRPPF”, for which the “soluble on expression in E. coli” value is “not soluble”. With “MTGVLVGCSVEKTNTNKVNIDKVEIVAPNVQGAGWDLTARAMQKTLTEEKIFTKPITVTNKVGGSGDVGWKYTKQKGGHVLAINSSLLITNNLLGHSKLTYKDFTPLATLASDWEVVVVSKDSNIENANQLMEQLKQNKKNFKIGVAPGLGNDDHLSFVQVSKAFGINPAELQFFVYENKEKIISALTNKQINAATMTLSEAEKQYKAGKIKILAVSAPKRIDRLPQIPTWKEQGIDVIFQHWKGIMGPKDMTEEEVAYWDDVIKRMVESDSWKGILRERGWESFYKGSGESSGWYGGMIKTEKVDEEGSYRMRFLGLFIGNLIYS”, the “soluble on expression in E. coli” value was “not soluble”. For the sequence “MSKLCKEFSLSATVKNMSRFVDGEEYYTDTEERFNIPWRMFIRKDSGYFDLGLVCEKDSWENREWSIETDYKMKFVSHNGDSLTDSEHFTFENSNKSDVCLMKPWDLLESDYVVDDSIVVEAYVKIIKMTDTPCDEDENIETFLLSNTVKNISSIEEGDDYYTEIATRHNVPWRMQIKRNNGFFELYLRCEKEEQPEWGWKIELDYDLRLVSLNGQSLSLTDSGSFSKPFCEGFEKFMRWNIMEENYIVKDSIIIEARGKITKMIGCDDDSSSDDGEDESSKSHSESDTSSDNLEDEFSECVINVGGQN”, the “soluble on expression in E. coli” value is given as “not soluble”. As for “MTNTTMQPNRLRIALQKKGRLSQDCAILLKQCGVKINWNEQRLIAYAENLPIEILRVRDDDIPGLIFDGVVDLGIIGENVLEEEELGRRAANETVTYKKLRQLDFGDCRLSLAVDRDCHYENVKDLANRRIATSYPHLLKRYMNENGVSFKSCLLNGSVEVAPSAGIAYAICDLVSSGATLEANGLKEVDVIYRSKACLIQRAEPLESTKQALVDKLLTRIQGVQQAAESKYIMLHAPKEKLEKITALLPGVENPTILPLASDTTRVAMHVVSQENLFWETMEQLKEAGASSILVLPIEKMMELEHHHHHH”, the “soluble on expression in E. coli” value was “soluble”. For “MGSDKIHHHHHHMKIGITCYPSMGGSGIIATELGIKMAERGHEVHFITSNIPFRIRKPLPNMTFHQVEVNQYAVFQYPPYDITLSTKISDVIQEYDLDILHMHYAVPHAVCGILAKQMSGKNVKIMTTLHGTDITVLGYDHTLQNAIKFGIEQSDIVTSVSHSLAQQTYEIINTKKEIIPIYNFVRENEFPTRHNEELKDCYGISPEEKVLIHVSNFRKVKRIDTVIETFAKVHESIPSKLILLGDGPELIDMRHKARELDVETHVLFLGKQNDVSAFYQLSDLVLLLSEKESFGLTLLEAMKTGVLPIGSHAGGIKEVIRHEETGFIVDIGDSTQAAKYAIKLLSNPELYQKMQSQMLKDIEARFSSDLITDQYENYYRKMLEQGENNNES” the value was “not soluble”; for “MGSDKIHHHHHHMIGALYVVGPAGTGKSTFSGSLNEWLKRMEFDSAIINLDPGADYLPYEPDFDIREYISLDSIMSDYNLGPNGSQIVAADMIVSYTDKITEFLEDLDDYYVVVDTPGQIELFTFRTSSTEIVEKVSGQRSMMAYIADAPLATYPSGFIAQKMLYASVFSRFFRPMMFVLNKIDLVSDEDIQEVKKWESSPDLLNDAFMEEKGQMEKDYFVGILQAFKESNIMTKIYPVSSRDSFGFEDIYSQMALYFTGGEDNDTYREEG”, “not soluble”.

“MTYTTRQIGAKNTLEYKVYIEKDGKPVSAFHDIPLYADKENNIFNMVVEIPRWTNAKLEITKEETLNPIIQDTKKGKLKFVRNCFPHHGYIHNYGAFPQTWEDPNVSHPETKAVGDNDPIDVLEIGETIAYTGQVKQVKALGIMALLDEGETDWKVIAIDINDPLAPKLNDIEDVEKYFPGLLRATNEWFRIYKIPDGKPENQFAFSGEAKNKKYALDIIKETHDSWKQLIAGKSSDSKGIDLTNVTLPDTPTYSKAASDAIPPASLKADAPIDKSIDKWFFISGSV”: the “soluble on expression in E. coli” value is reported as “soluble”. Consider “MDKFIKQLDPNLDYINHEINDGKCYITVASNRKEVTCPFCGQSSSRIHSTYNRIFQDLPIQGNKVFIIIRNRKMFCDNHDCSHTTFAERFDFISYKAKKTRRLEDEIVRLSINCSSVAASKALKENVVDIGKSTVCNLLKKETLVVDKKTVTVVCIDDFAIKKRKSYGTIMIDIFTHQILDMIDSRDYETVCEWLKTYPNLSVISRDGSVIYNNAIANAHPEALQISDRFHLLKNLTSYITEYLKKRLKPQVLIQAVSQETKEIKTIRQADENRKLTLKEKYEKIKQLLLEGKCKTEICRSLNMDIRAYDKLMAMTAEKREKSFQTKKMIIHEERVKQKMERVNEVRELKGIGLSNREISRRTGLNRKTVSRYLDENFNPVHAAYGKKRNGKLTPYIKAIDEYLEKGIMGSYIEEKIREMGYEGSSSTVRDYITDWKKRRKKYYDKSREDGTKTETIKRENILKLLYQPIEKSKNN”, for which the “soluble on expression in E. coli” value is “soluble”. Consider “MSTENTLSVADLARENVRNLVPYQSARRLGGNGDVWLNANEFPTAVEFQLTQQTLNRYPECQPKAVIENYAQYAGVKPEQVLVSRGADEGIELVIRAFCEPGKDAILYCPPTYGMYSVSAETIGVERRTVPALENWQLDLQGISDNLDGTKVVFVCSPNNPTGQLINPQDLRTLLELTRGKAIVVADEAYIEFCPQATLTGWLVEYPHLVILRTLSKAFALAGLRCGFTLANEEVINLLLKVIAPYPLSTPVADIAAQALCPQGINAMRDRVAQTVQERQYLVNALQQTACVEHVFDSETNYILARFTASSSVFKSLWDQGIILRDQNKQPSLSGCLRITVGTRQENQRVIDALRAEPV”, for which the “soluble on expression in E. coli” value was “not soluble”. For “MEQHVIEFLTTTLDDLKAQDILAIDVRGKSSITDTMIIATGTSVRHVASTAERLITEAKKAGVQVLGEEGRAVADWVVVDFGQAIVHLLQADARELYQLEKLWRLEHHHHHH” the value was “not soluble”; for “MTYEAFVELVERLWEEVPEDFKRGLQGVHVFPEAKPEPGLEGVWRLGEYLDPGPPSAFGGFEDLGRHIALYYGSFLEVAGEGFDWEAEVWETMLHELRHHLESLAGRDDLVQEDLRRLDAFRRGGPSGEG”, “soluble”.

The values above are taken from the DeepSol protein solubility set.
